Test results from patent US20250122271A1, “ANTI-DKK1 ANTIBODY, PHARMACEUTICAL COMPOSITION THEREOF, AND USE THEREOF” (SHANGHAI JUNSHI BIOSCIENCES CO., LTD., priority 2022, published 2025).
Like-named read-outs stand apart in the source and are kept apart here.

T1: human DKK1 antigen (Sino Biological, 10170-H08H) (human, UniProt O94907 32-266)
T1 chain: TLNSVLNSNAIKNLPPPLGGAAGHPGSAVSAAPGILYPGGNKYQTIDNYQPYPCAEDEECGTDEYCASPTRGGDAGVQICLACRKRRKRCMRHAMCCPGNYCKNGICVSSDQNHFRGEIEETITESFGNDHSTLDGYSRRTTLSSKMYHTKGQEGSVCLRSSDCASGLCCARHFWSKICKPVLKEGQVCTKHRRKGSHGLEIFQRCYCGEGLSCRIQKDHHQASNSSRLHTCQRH

T2: human DKK1 antigen (Sino Biological, 10170-H08H) (human, UniProt O94907 32-266)
T2 construct: also called huDKK1; hDKK1
T2 sequence (looked up): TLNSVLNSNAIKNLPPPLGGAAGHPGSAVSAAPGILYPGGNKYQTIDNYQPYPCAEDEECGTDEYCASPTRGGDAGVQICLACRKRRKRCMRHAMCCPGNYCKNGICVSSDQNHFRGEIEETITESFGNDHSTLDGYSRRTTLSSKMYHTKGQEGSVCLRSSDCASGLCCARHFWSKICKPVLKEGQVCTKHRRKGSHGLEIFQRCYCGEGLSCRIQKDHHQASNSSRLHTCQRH

T3: human DKK1 (Homo sapiens, UniProt O94907)
T3 construct: purchased Sino Biological 10170-H08H
T3 sequence (O94907 32-266): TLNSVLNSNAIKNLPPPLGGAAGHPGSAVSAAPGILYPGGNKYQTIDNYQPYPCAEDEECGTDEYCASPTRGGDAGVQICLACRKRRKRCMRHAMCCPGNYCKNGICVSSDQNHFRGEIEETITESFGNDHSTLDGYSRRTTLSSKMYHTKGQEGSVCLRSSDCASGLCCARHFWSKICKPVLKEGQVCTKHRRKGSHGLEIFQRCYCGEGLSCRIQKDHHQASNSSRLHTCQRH


Assays:
[1] = system: A549 cells; experiment: A549 subcutaneous transplantation tumor model in CB17/SCID female mice; format: in vivo
Procedure: The experimental animals were CB17/SCID female mice, and A549 cells (5× 10^6) were subcutaneously inoculated into the mice to establish a subcutaneous transplantation tumor model. […] The groups each had 6 animals, and the animals in all the groups were subjected to intraperitoneal injection. […] The efficacy was evaluated based on tumor growth inhibition (TGI) (FIG. 9).

[2] = system: advanced gynecological cancers; details: patients with high expression of DKK1, stage 2 clinical; cited from earlier work
[3] = target: T1, human DKK1 antigen (Sino Biological, …); experiment: ELISA blocking of DKK1-LRP6
[4] = target: T1, human DKK1 antigen (Sino Biological, …); experiment: ELISA binding; given as IC50
[5] = target: T2, human DKK1 antigen (Sino Biological, …); experiment: ELISA, coated human DKK1
Procedure: (§1) Detection of the binding activity of the chimeric antibodies for human DKK1 by ELISA: After the plate was coated with 2.0 μg/mL human DKK1 antigen (Sino Biological, 10170-H08H) for 90 min and then blocked with 2% BSA for 90 min, the gradiently diluted anti-DKK1 chimeric antibodies and positive control antibody DKN-01 (starting at 1 μg/mL, diluted in a 2.5-fold gradient to 1.64 ng/ml, with a total of 8 concentrations) were added, and the mixture was incubated for 60 min. After the plate was washed, the 5000-fold diluted HRP-conjugated goat anti-human IgG (Fc specific) (Sigma, A0170) secondary antibody was added for incubation, and 0.1 mg/mL TMB (Sigma, T2885) was added for color development. Finally, the reaction was stopped with a 2 M hydrochloric acid solution. The plate was read at 450 nm/620 nm using a Thermo Scientific microplate reader, and the EC50 values of the chimeric antibodies (FIG. 3) were obtained by fitting using a four-parameter logistic regression (4PL) model.

[6] = target: T3, human DKK1; experiment: Luciferase reporter gene assay in 293 TOP cells with Wnt3a and human DKK1 (recovery of Wnt signaling); format: cell-based; details: screening at protein and cellular level
Procedure: The cellular biological activity of the DKK1 antibodies was tested using target cells 293 TOP overexpressing LRP5/6 and comprising the luciferase reporter system and recombinant Wnt3a (R&D systems, cat #5036-WN), as well as human DKK1 (Sino Biological, cat #10170-H08H) protein. The target cells 293 TOP were placed into a 96-well flat-bottomed white plate (corning, cat #3917) at 50,000 cells per well for incubation overnight. The supernatant was then discarded, and the gradiently diluted antibodies to be tested were each added for pre-incubation at 37° C. for 0.5 h. After the pre-incubation was completed, the diluted Wnt3a (R&D systems, cat #5036-WN) and human DKK1 protein, at working concentrations of 0.05 μg/mL and 0.1 μg/mL, respectively, were added into the mixture containing the cells and antibody for co-incubation at 37° C. for 6-8 h. Finally, the luciferase substrate One-Lite (Vazyme, cat #DD1203-03-AB) was added and the chemiluminescence values of the hybridoma antibodies were measured.
(§2) The cellular biological activity of the hDKK1 chimeric antibodies was tested using target cells 293 TOP overexpressing LRP5/6 and comprising the luciferase reporter system and recombinant Wnt3a (R&D systems, cat #5036-WN), as well as human DKK1 (Sino Biological, cat #10170-H08H) protein.
The target cells 293 TOP were placed into a 96-well flat-bottomed white plate (corning, cat #3917) at 50,000 cells per well for incubation overnight. […] Finally, the luciferase substrate One-Lite (Vazyme, cat #DD1203-03-AB) was added and the chemiluminescence values of the chimeric antibodies were measured (FIGS. 5A-5C).
as §2, with “DKK1” for “hDKK1 chimeric”, “protein. […] Finally, the luciferase substrate One-Lite (Vazyme, cat #DD1203-03-AB) was added and the chemiluminescence values of the humanized antibodies were measured. […]” for “protein.”

[7] = target: T3, human DKK1; experiment: Binding of antibodies to human DKK1 by ELISA; details: chimeric antibodies, compared among each other
Procedure: as §1
Detection of the binding of the humanized antibodies to DKK1 by ELISA: The plate was coated with 2.0 μg/mL human DKK1 antigen (Sino Biological, 10170-H08H) for 90 min and then blocked with 2% BSA for 90 min. After the plate was washed, the gradiently diluted anti-DKK1 humanized antibodies (starting at 1 μg/mL, diluted in a 10-fold gradient to 1 ng/ml, with a total of 4 concentrations) were each added, and the mixture was incubated for 60 min. After the plate was further washed, the 5000-fold diluted HRP-conjugated goat anti-human IgG (Fc specific) (Sigma, A0170) secondary antibody was added for incubation for 30 min, and 0.1 mg/mL TMB (Sigma, T2885) was added at 100 μL per well for color development for 10 min. Finally, a 2 M hydrochloric acid solution was added at 50 μL per well to stop the reaction. The plate was read at 450 nm/620 nm using a Thermo Scientific microplate reader. The EC50 values of the humanized antibodies were obtained by fitting using a four-parameter logistic regression (4PL) model.

[8] = target: T1, human DKK1 antigen (Sino Biological, …); experiment: ELISA binding
[9] = target: T1, human DKK1 antigen (Sino Biological, …); experiment: ELISA binding
[10] = target: T1, human DKK1 antigen (Sino Biological, …); experiment: ELISA blocking of DKK1-LRP6

IC50 [3] [µg/mL] | binding result [5] | in vitro activity in the screening of the chimeric antibodies of Example 4 [6] | relative binding activity for human DKK1 (ELISA) [7] | Molecule | other results
– | – | best in vitro activity | superior activity | chi-8: chimeric antibody 2VH+2VL (SEQ ID NO: 39/40) (antibody, V domains shown) VH: MGWSWIFLFLLSGTAGVLSEVQLQQSGPELVKPGASVKIFCKTSGYTFTENTMHWVKQTHGKSLEWIGGINPHKGGTSYNQKFKGKATLTVDKSSSTACMELRSLTSEDSTVYYCARDWLGAMDYWGQGTSVTVSP VL: MFSLALLLSLLLLCVSDSRAETTVTQSPASLSMAIGEKVTIRCITSTDIDDDMNWYQQKPGEPPKLLISEGNTLRPGVPSRFSSSGYGTDFVFTIENMLSEDVADYYCLQSDNLPYTFGGGTKLEIK | –
– | – | best in vitro activity | superior activity | chi-1: chimeric antibody 1VH+1VL (SEQ ID NO: 37/38) (antibody, V domains shown) VH: MGWSWIFLFLLSGTAGVLSEVQLQQSGPELVKPGASVRISCKTSGYTFTEYTMHWVKQSHGKSLEWIGVIDPSNGDTSYNQKFKGRATLTVDKSSSTAYMDLRSLTSEDSALYYCSSTTGPWFACWGQGTLVTVSA VL: MSSAQFLGLLLLCFQGTRCDIQMTQTTSSLSASLGDRVTINCRASQDISNYLNWYQQKPDGTVKLLIYYKSRLHSGVPTRFSGSGSGTDFSLTISNLVQEDIATYFCQQVHTLPPTFGGGTKLEIK | –
0.92 | – | – | – | chi-21 (antibody, V domains shown) VH: QVQLQQPGAELVKPGASVKMSCKASGYTFTSYNMLWVKQTPGQGLEWIGVIFPGNGDTSYNPKFKGKAALTADKSSSTAYMQLSSLTSEDSAVYYCARDGYPSMDYWGQGTSVTVSS VL: QIVLTQSPVIMSASPGEKVTMTCSASSSVSYMYWYQQKPGSSPRLLIYDTSNLASGVPVRFSGSGSGTSYSLTISRMEAEDAATYYCQQWSSYPPALTFGAGTKLELK | EC50 [8]: 0.816 µg/mL
– | – | best in vitro activity | superior activity | chi-15: chimeric antibody 3VH+3VL (SEQ ID NO: 41/42) (antibody, V domains shown) VH: MGWNCFILFLVATATGVHSQVQLQQPGAELVKPGASVKMSCKASGYTFTSYNMLWVKQTPGQGLEWIGVIFPGNGDTSYNPKFKGKAALTADKSSSTAYMQLSSLTSEDSAVYYCARDGYPSMDYWGQGTSVTVSS VL: MLSLAPLLSLLLLCVSDSRAETIVTQSPASLSVATGEKVTIRCITSTDIDDDMNWYQQKPGEPPKLLISEGNSLRPGVPSRFSSSGYGTDFVFTIENTLSEDVADYYCLQFNNMPLTFGAGTKLELK | –

The next lines start with the molecule.

Molecule | IC50 [3] [µg/mL] | binding result [5] | in vitro activity in the screening of the chimeric antibodies of Example 4 [6] | relative binding activity for human DKK1 (ELISA) [7] | other results
CC(=O)O[C@H]1C(=O)[C@@]2(C)[C@H]([C@H](OC(=O)c3ccccc3)[C@]3(O)C[C@H](OC(=O)[C@H](O)[C@@H](NC(=O)c4ccccc4)c4ccccc4)C(C)=C1C3(C)C)[C@]1(OC(C)=O)CO[C@@H]1C[C@@H]2O [paclitaxel, reference compound] | – | – | – | – | tumor growth inhibition (TGI) ([1]; day 35, paclitaxel 20 mg/kg intraperitoneal twice per week for 4 weeks): 60.48%
DKN-01: positive control anti-DKK1 monoclonal antibody; heavy and light chains SEQ ID NO: 108 and SEQ ID NO: 109 | – | – | – | – | disease control rate [2]: 57%; objective remission rate [2]: 14%; tumor growth inhibition (TGI) ([1]; day 35 after tumor inoculation, 5 mg/kg intraperitoneal once per week for 4 weeks): 23.27%
chimeric antibody chi-8 (antibody, human IgG4 S228P, kappa, V domains shown, hIgG4 heavy constant region and human kappa constant region; also called No. 2 chimeric antibody molecule) VH: EVQLQQSGPELVKPGASVKIFCKTSGYTFTENTMHWVKQTHGKSLEWIGGINPHKGGTSYNQKFKGKATLTVDKSSSTACMELRSLTSEDSTVYYCARDWLGAMDYWGQGTSVTVSP VL: ETTVTQSPASLSMAIGEKVTIRCITSTDIDDDMNWYQQKPGEPPKLLISEGNTLRPGVPSRFSSSGYGTDFVFTIENMLSEDVADYYCLQSDNLPYTFGGGTKLEIKR | 0.309 | binds | – | – | EC50 [4]: 0.0434 µg/mL
chimeric antibody chi-15 (antibody, human IgG4 S228P, kappa, V domains shown, hIgG4 heavy constant region and human kappa constant region; also called No. 3 chimeric antibody molecule) VH: QVQLQQPGAELVKPGASVKMSCKASGYTFTSYNMLWVKQTPGQGLEWIGVIFPGNGDTSYNPKFKGKAALTADKSSSTAYMQLSSLTSEDSAVYYCARDGYPSMDYWGQGTSVTVSS VL: ETIVTQSPASLSVATGEKVTIRCITSTDIDDDMNWYQQKPGEPPKLLISEGNSLRPGVPSRFSSSGYGTDFVFTIENTLSEDVADYYCLQFNNMPLTFGAGTKLELKR | 0.0992 | binds | – | – | EC50 [8]: 0.0238 µg/mL; EC50 [9]: 0.0244 µg/mL; IC50 [10]: 0.258 µg/mL
chimeric antibody chi-1 (antibody, human IgG4 S228P, kappa, V domains shown, hIgG4 heavy constant region and human kappa constant region; also called No. 1 chimeric antibody molecule) VH: EVQLQQSGPELVKPGASVRISCKTSGYTFTEYTMHWVKQSHGKSLEWIGVIDPSNGDTSYNQKFKGRATLTVDKSSSTAYMDLRSLTSEDSALYYCSSTTGPWFACWGQGTLVTVSA VL: DIQMTQTTSSLSASLGDRVTINCRASQDISNYLNWYQQKPDGTVKLLIYYKSRLHSGVPTRFSGSGSGTDFSLTISNLVQEDIATYFCQQVHTLPPTFGGGTKLEIKR | 0.355 | binds | – | – | EC50 [4]: 0.0238 µg/mL
